Blank lines part the entries; values can stand above or below the binder they belong to.
Tests used:
Conditions in all cases: remark: other sources report otherwise
[1] = biological target: T1, Native pentameric human C-reactive protein (Scripps) (human), P02741; experiment: SEC; HiLoad 16/60 Superdex 200 pg, elution buffer B (50 mM tris, 150 mM NaCl, pH 7.2), 0.5 ml/min; pCRP after storage in 20 mM tris, 280 mM NaCl, 1 mM EDTA with 2, 2.5, 3 or 4 M urea at 4°C, 10 weeks
T1 chain: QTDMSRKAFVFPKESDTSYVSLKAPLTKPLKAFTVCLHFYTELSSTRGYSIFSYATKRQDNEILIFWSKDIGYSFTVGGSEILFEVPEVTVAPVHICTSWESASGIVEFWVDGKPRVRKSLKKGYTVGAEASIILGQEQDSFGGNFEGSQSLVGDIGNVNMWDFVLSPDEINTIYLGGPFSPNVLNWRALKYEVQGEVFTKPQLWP

[2] = biological target: T2, C-reactive protein purified from human serum of patients with raised CRP levels (>100 mg/L) (human (endogenous in patient serum)), P02741; experiment: SEC; HiLoad 16/60 Superdex 200 pg, elution with buffer A (5 mM CaCl2), 0.5 ml/min; serum CRP first purified by PCho affinity chromatography and eluted with EDTA
T2 chain: T1 chain

[3] = biological target: T3, Commercially sourced native C-reactive protein (Binding Site) (human), P02741; experiment: SEC; size exclusion FPLC (recalibrated after a change of column), 0.5 ml/min; 500 μg and 100 μg of PCho affinity purified CRP loaded; fractions at the mCRP position tested by ELISA
T3 chain: T1 chain

stoichiometry N [1]: 5
B1: Native pentameric human C-reactive protein (Scripps), P02741 19-224 (natural protein)
chain: T1 chain

stoichiometry N [2]: 5
B2: C-reactive protein purified from human serum of patients with raised CRP levels (>100 mg/L), P02741 19-224 (natural protein)
chain: T1 chain

stoichiometry N [3]: 5
B3: Commercially sourced native C-reactive protein (Binding Site), P02741 19-224 (natural protein)
chain: T1 chain

From PMC7010908
